± gives the standard deviation of the averaged measurements.
Tested on: ATP
Assay: switch fluorescence ratio, 500 uM ATP over buffer (Cy3 cluster intensity, sum of 5 cycles each) (fold (ratio)); higher = stronger signal-on switching upon ATP binding; sequences stand for … in TCGTCGGCAGCGTCAGATGTGTATAAGAGACAGTTTTTTTTTTTTTTTTTTTTTTTTT…TC
Settings: aptamer strand: ATP DNA aptamer (quencher-CACCTGGGGGAGTATTGCGGAGGAAGG + anchor), 100 nM annealed; ATP concentration: 500 uM
Method in brief: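 The fluorescence ratio divides summed target-cycle Cy3 intensity by summed buffer-cycle Cy3 intensity for each cluster and is averaged per switch-domain sequence. Cy3-labelled switching-strand clusters on a modified Illumina MiSeq flow-cell were annealed to 100 nM quencher-labelled ATP aptamer, then imaged in selection buffer and again after 15 min with 500 uM ATP at 22 °C. Five such cycles were run, with NaOH stripping and re-annealing between them, and clusters outside 100-1000 RFU were excluded.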
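Further: ATP exposure 15 min at 22 °C before imaging.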

Row | Sequence | switch fluorescence ratio
1 | ACGGCTCTGG | 1.015 ± 0.0057
2 | ACGGGACAGC | 1.2 ± 0.064
3 | ACGGGACATT | 1.19 ± 0.033
4 | ACGGGATATA | 1.02 ± 0.058
5 | ACGGGCGACG | 1.02 ± 0.025
6 | ACGGGGCGTA | 0.98581 ± 0.00064
7 | ACGGGGGCTG | 0.996 ± 0.037
8 | ACGGGGGGTG | 1.01 ± 0.077
9 | ACGGGGTAAT | 1.22 ± 0.35
10 | ACGGGGTATT | 0.996 ± 0.028
11 | ACGGGGTCTA | 0.993 ± 0.027
12 | ACGGGGTGGA | 1 ± 0.037
13 | ACGGGGTTTG | 0.995 ± 0.018
14 | ACGGGTACGC | 1.01 ± 0.021
15 | ACGGGTGGCG | 0.95 ± 0.11
16 | ACGGGTTCCA | 1.08 ± 0.13
17 | ACGGGTTCGT | 1.01 ± 0.012
18 | ACGGTAACGT | 1.02 ± 0.0058
19 | ACGGTAGGGC | 1.03 ± 0.013
20 | ACGGTATTGG | 1.09 ± 0.044
21 | ACGGTCAGTC | 1.05 ± 0.077
22 | ACGGTCCTTT | 0.973 ± 0.038
23 | ACGGTCGACT | 1.05 ± 0.057
24 | ACGGTGTTGG | 1.02 ± 0.021
25 | ACGGTTCCTG | 1.001 ± 0.0061

Row | Sequence | switch fluorescence ratio
26 | ACGGTTGGT | 1.02 ± 0.012
27 | ACGGTTGTAC | 1.1813 ± 0.001
28 | ACGGTTGTGG | 1.01 ± 0.026
29 | ACGGTTTTCA | 0.977 ± 0.011
30 | ACGTAATTGT | 1.13 ± 0.061
31 | ACGTAATTTT | 1.17 ± 0.03
32 | ACGTAGAAAT | 1.35 ± 0.022
33 | ACGTAGTTTG | 1.04 ± 0.033
34 | ACGTATTTTG | 1.08 ± 0.045
35 | ACGTCTGAGG | 1.02 ± 0.029
36 | ACGTGCAGTT | 1.02 ± 0.012
37 | ACGTGCCGCA | 1.079 ± 0.0088
38 | ACGTGCTCGT | 0.991 ± 0.041
39 | ACGTGGGGCT | 1.05 ± 0.027
40 | ACGTGTAGGA | 1.0005 ± 0.00069
41 | ACGTGTAGGG | 1 ± 0.025
42 | ACGTGTCGGT | 1.028 ± 0.0037
43 | ACGTGTGGGG | 1.05 ± 0.034
44 | ACGTGTTCAT | 0.983 ± 0.018
45 | ACGTTATTTA | 1.1534 ± 0.0011
46 | ACGTTCGCGG | 0.985 ± 0.028
47 | ACGTTCGTTG | 0.9908 ± 0.0096
48 | ACGTTCTGTT | 1.02 ± 0.023
49 | ACGTTTGTTT | 0.971 ± 0.049
50 | ACTAAACGAG | 1.062 ± 0.0078

Row | Sequence | switch fluorescence ratio
51 | ACTACTGGCT | 1.047 ± 0.0089
52 | ACTACTGGGA | 0.976 ± 0.041
53 | ACTACTTTCG | 1.03 ± 0.034
54 | ACTAGAGCGA | 1.11 ± 0.11
55 | ACTAGAGGAC | 1 ± 0.04
56 | ACTAGATACG | 1.04 ± 0.018
57 | ACTAGCGGCG | 1.05 ± 0.024
58 | ACTAGGAATC | 1.04 ± 0.019
59 | ACTAGGCAAG | 1.13 ± 0.018
60 | ACTAGTGTCA | 1 ± 0.04
61 | ACTATAGTGT | 1.02 ± 0.022
62 | ACTATGCGGG | 0.982 ± 0.017
63 | ACTATGGCTG | 0.957 ± 0.045
64 | ACTATGGTTA | 0.997 ± 0.055
65 | ACTATTACGG | 1.18 ± 0.0094
66 | ACTCACTGGT | 1.23 ± 0.043
67 | ACTCATGTAA | 1.03 ± 0.015
68 | ACTCATGTT | 0.996 ± 0.012
69 | ACTCATTTGG | 1.001 ± 0.0087
70 | ACTCCATACA | 1.21 ± 0.04
71 | ACTCCCGAAT | 1.865 ± 0.0096
72 | ACTCGACAGG | 1.8 ± 0.013
73 | ACTCGAGGAT | 1.03 ± 0.013
74 | ACTCGCTGGG | 1.11 ± 0.018
75 | ACTCGTGTAG | 1.04 ± 0.022

Row | Sequence | switch fluorescence ratio
76 | ACTCTGGGAG | 1.03 ± 0.022
77 | ACTCTGGGGT | 1.03 ± 0.015
78 | ACTCTGGTAA | 1.065 ± 0.0032
79 | ACTCTTATCG | 1.02 ± 0.054
80 | ACTCTTGTAT | 1.045 ± 0.0058
81 | ACTGAATCCT | 1.08 ± 0.028
82 | ACTGAGCCTG | 1.056 ± 0.0083
83 | ACTGAGGGGG | 1 ± 0.01
84 | ACTGCAGAAC | 1.9 ± 0.34
85 | ACTGCCATCG | 1.1 ± 0.023
86 | ACTGGGCCTT | 1.031 ± 0.0083
87 | ACTGGGCGGA | 0.996 ± 0.015
88 | ACTGGGGGAC | 1.04 ± 0.036
89 | ACTGGGGGTG | 1.07 ± 0.086
90 | ACTGGGTTTC | 0.99 ± 0.054
91 | ACTGGTATAG | 1.041 ± 0.0019
92 | ACTGGTTTTG | 1.01 ± 0.022
93 | ACTGTAACGG | 1.19 ± 0.034
94 | ACTGTCGCCA | 1.023 ± 0.0059
95 | ACTGTCTAAT | 1.01 ± 0.026
96 | ACTGTGCTTT | 1.015 ± 0.0097
97 | ACTGTGGAAT | 1.07 ± 0.022
98 | ACTGTGGGGA | 1.01 ± 0.013
99 | ACTGTTTGGA | 0.995 ± 0.0037
100 | ACTTAAAATT | 0.996 ± 0.044
